{
  "source": "patent US12570698B2",
  "about": "“Stabilized peptides for covalent binding to target protein” (Dana-Farber Cancer Institute, Inc., priority 2015, dated 2026)",
  "type_in_all_cases": "binding",
  "key": {"GST-MCL-1ΔNΔC": {"target": "T1, GST-MCL-1ΔNΔC (Homo sapiens, UniProt Q07820)", "T1 construct": "MCL-1ΔNΔC (aa 170-327) and BCL-XLΔC (aa 1-212) constructs were cloned into pGEX-4T-1; made in house; host or cells: Escherichia coli BL21(DE3)", "T1 sequence (Q07820 170-327, stated change not applied)": "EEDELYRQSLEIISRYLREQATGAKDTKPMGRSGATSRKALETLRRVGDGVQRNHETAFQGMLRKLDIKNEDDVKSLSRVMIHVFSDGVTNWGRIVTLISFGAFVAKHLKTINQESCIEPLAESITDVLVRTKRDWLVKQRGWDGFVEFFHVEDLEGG", "experiment": "Streptavidin pull-down from anti-apoptotic protein mixture", "conditions": "1:1:1:1 mixture, 1 μM each, biotinylated SAHBs", "text": "We next explored how conversion of NOXA and BIM SAHBs to BFL-1 C55-reactive agents influenced the balance between noncovalent and covalent SAHB interactions in the context of an anti-apoptotic protein mixture. First, we generated recombinant MCL-1ΔNΔC, BCL-XLΔC and BFL-1ΔC proteins with differential N-terminal tags (GST, tagless, and His, respectively) so that each could be readily identified upon gel electrophoresis and silver stain (FIG. 13A-B).\nStreptavidin Pull-down: Recombinant His-BFL-1ΔC, BCL-XLΔC (tagless) and GST-MCL-1ΔNΔC (1 μM each) were combined and reduced with 3 mM DTT in PBS for 30 min at RT, and then incubated with 1 μM biotinylated SAHBA, SAHBA-3 or vehicle for 4 h at RT. The mixtures were then combined with PBS-washed high-capacity SA agarose (Thermo Fisher Pierce) and incubated with rotation for 2 h at RT. The beads were centrifuged at 3000 rpm, washed twice with NP-40 lysis buffer (1% NP40, 50 mM Tris pH 8.0, 100 mM NaCl, 2.5 mM MgCl2), once with PBS, and then bound protein eluted by boiling in 10% SDS containing 10 mg/mL biotin. Inputs (10%) and eluates were electrophoresed on a 12% Bis-Tris gel and then subjected to silver stain and imaging."}, "BFL-1ΔC [1]": {"target": "T2, BFL-1ΔC (Homo sapiens, UniProt Q16548)", "T2 construct": "cDNA encoding BFL-1ΔC (aa 1-153) was cloned into the pET19b expression vector; made in house; host or cells: Escherichia coli BL21(DE3) LOBSTR", "T2 sequence (Q16548 1-153)": "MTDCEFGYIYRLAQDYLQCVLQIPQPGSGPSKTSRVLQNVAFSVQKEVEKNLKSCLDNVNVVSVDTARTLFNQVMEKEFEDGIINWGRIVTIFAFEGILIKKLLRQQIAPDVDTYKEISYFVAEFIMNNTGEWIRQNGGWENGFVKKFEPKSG", "experiment": "In vitro covalent conjugation assay", "conditions": "DTT (10 mM) reduction then GSSG oxidation (12 mM); Coomassie, FITC scan", "description": "(§1) In Vitro Covalent Conjugation Assay: BFL-1ΔC constructs (40 μM) were combined with NOXA SAHBA or NOXA SAHBA C25S (120 μM) and 10 mM DTT in 50 mM Tris pH 8.0, 100 mM NaCl (final volume, 5 μL), and then incubated in the dark for 1 h at room temperature (RT). After this incubation in a reducing environment, the mixture was diluted 5-fold into 50 mM Tris pH 8.0, 100 mM NaCl, 12 mM GSSG and incubated in the dark for an additional 30 min at RT. The samples were then boiled in 4× loading buffer lacking DTT and electrophoresed on 12% Bis-Tris gel. The gel was rinsed with water, subjected to FITC scan (Typhoon FLA 9500, GE Healthcare) and then Coomassie staining.\n(§2) For warhead-bearing SAHBs, His-BFL-1ΔC C4S/C19S protein was pretreated with 10 mM DTT in 50 mM Tris pH 8.0, 100 mM NaCl for 30 min at RT (final volume, 9.5 μL), and then combined with a 10:1 molar ratio of NOXA SAHBA or BIM SAHBA peptides bearing warheads 1-8 (final volume, 10 μL) for an additional 2 h incubation at RT. Processing for gel electrophoresis and Coomassie staining was performed as above."}, "BFL-1ΔC [2]": {"target": "T3, BFL-1ΔC (Homo sapiens, UniProt Q16548, C19S/C4S)", "T3 construct": "cDNA encoding BFL-1ΔC (aa 1-153) was cloned into the pET19b expression vector; made in house; host or cells: Escherichia coli BL21(DE3) LOBSTR", "T3 sequence (Q16548 1-153 C4S/C19S)": "T2 sequence (Q16548 1-153) with C4S, C19S", "experiment": "In vitro covalent conjugation assay", "conditions": "only C55 present; oxidizing conditions", "description": "as §1, §2"}, "BFL-1ΔC [3]": {"target": "T4, BFL-1ΔC (Homo sapiens, UniProt Q16548, C19S/C4S/C55S)", "T4 construct": "cDNA encoding BFL-1ΔC (aa 1-153) was cloned into the pET19b expression vector; made in house; host or cells: Escherichia coli BL21(DE3) LOBSTR", "T4 sequence (Q16548 1-153 C4S/C19S/C55S)": "T2 sequence (Q16548 1-153) with C4S, C19S, C55S", "experiment": "In vitro covalent conjugation assay", "conditions": "lacks C55; oxidizing conditions", "description": "as §1, §2"}, "BCL-XLΔC": {"target": "T5, BCL-XLΔC (Homo sapiens, UniProt Q07817)", "T5 construct": "MCL-1ΔNΔC (aa 170-327) and BCL-XLΔC (aa 1-212) constructs were cloned into pGEX-4T-1; GST (N, cleaved yes); made in house; host or cells: Escherichia coli BL21(DE3)", "T5 sequence (Q07817 1-212, stated change not applied)": "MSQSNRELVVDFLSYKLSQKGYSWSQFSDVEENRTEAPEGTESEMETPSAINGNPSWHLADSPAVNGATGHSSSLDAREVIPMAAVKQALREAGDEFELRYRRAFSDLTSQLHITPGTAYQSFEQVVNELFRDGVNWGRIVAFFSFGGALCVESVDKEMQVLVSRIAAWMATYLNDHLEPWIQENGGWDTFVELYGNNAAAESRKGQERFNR", "experiment": "In vitro covalent conjugation assay", "conditions": "oxidizing conditions", "description": "(§3) After this incubation in a reducing environment, the mixture was diluted 5-fold into 50 mM Tris pH 8.0, 100 mM NaCl, 12 mM GSSG and incubated in the dark for an additional 30 min at RT. […] The gel was rinsed with water, subjected to FITC scan (Typhoon FLA 9500, GE Healthcare) and then Coomassie staining.\n(§4) Processing for gel electrophoresis and Coomassie staining was performed as above."}, "MCL-1ΔNΔC": {"target": "T6, MCL-1ΔNΔC (Homo sapiens, UniProt Q07820)", "T6 construct": "MCL-1ΔNΔC (aa 170-327) and BCL-XLΔC (aa 1-212) constructs were cloned into pGEX-4T-1; GST (N, cleaved yes); made in house; host or cells: Escherichia coli BL21(DE3)", "T6 sequence (Q07820 170-327, stated change not applied)": "as the sequence (Q07820 170-327, stated change not applied) above", "experiment": "In vitro covalent conjugation assay", "conditions": "oxidizing conditions", "description": "as §3, §4"}},
  "note": "Numbering of substitutions follows the chain as printed. Bridge positions count the residues as written; N and C are the ends. Square brackets hold non-standard residues; d marks the D form. Ends that are not written are not given here. S5 = C=CCCC[C@](C)(N)C(=O)O",
  "data": [
    {"substance": "NOXA SAHBA: stapled NOXA BH3 (aa 19-43) peptide, i, i+4 all-hydrocarbon staple substituting R31 and K35; SEQ ID NO:124 (AELEVECATQLR[S5]FGD[S5]LNFRQKLL; staple 13-17; not fully specified)", "values": [
      {"measurement": "MCL-1ΔNΔC capture in SA pull-down", "setting": "GST-MCL-1ΔNΔC", "result": "prominent non-covalent capture of MCL-1ΔNΔC"},
      {"measurement": "molecular weight shift of wild-type BFL-1ΔC (disulfide bond)", "setting": "BFL-1ΔC [1]", "result": "shift in the molecular weight"},
      {"measurement": "disulfide adduct with BFL-1ΔC C4S/C19S", "setting": "BFL-1ΔC [2]", "result": "molecular weight shift (Coomassie stain) and FITC-labeling"},
      {"measurement": "disulfide adduct with BFL-1ΔC C4S/C19S/C55S", "setting": "BFL-1ΔC [3]", "result": "no adduct"},
      {"measurement": "molecular weight shift or FITC labeling", "setting": "BCL-XLΔC", "result": "no molecular weight shift or FITC labeling"},
      {"measurement": "molecular weight shift or FITC labeling", "setting": "MCL-1ΔNΔC", "result": "no molecular weight shift or FITC labeling"}
    ]}
  ]
}
